± gives the uncertainty stated by the source.
Test: self-splicing fitness, log relative to wild type (ln ratio); higher = more splicing; Tetrahymena group I intron in knt gene, E. coli kanamycin selection, DiMSum; sequences stand for … in CUCUCU…GGAGGGAAAAGUUAUCAGGCAUGCACCUGGUAGCUAGUCUUUAAACCAAUAGAUUGCAUCGGUUUAAAAGGCAAGACCGUCAAAUUGCGGGAAAGGGGUCAACAGCCGUUCAGUACCAAGUCUCAGGGGAAACUUUGAGAUGGCCUUGCAAAGGGUAUGGUAAUAAGCUGACGGACAUGGUCCUAACCACGCAGCCAAGUCCUAAGUCAACAGAUCUUCUGUUGAUAUGGAUGCAGUUCACAGACUAAAUGUCGGUCGGGGAAGAUGUAUUCUUCUCAUAAGAUAUAGUCGGACCUCUCCUUAAUGGGAGCUAGCGGAUGAAGUGAUGCAACACUGGAGCCGCUGGGAACUAAUUUGUAUGCGAAAGUAUAUUGAUUAGUUUUGGAGUACUCGUGGUCG
Procedure, shortened: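 Six replicate transformations of E. coli BL21(DE3) with a pET-22b(+) library were grown overnight at 37°C or 30°C. The library randomised all eight P1ex-region intron nucleotides, the intron lying in the knt kanamycin-resistance gene, and plates were LB agar with or without 25 μg/mL kanamycin plus 100 μg/mL carbenicillin, 50 μM IPTG and 0.2% rhamnose. Pooled colonies were amplicon-sequenced on an Illumina HiSeq 2500, and fitness is the DiMSum error-weighted combination of wild-type-normalised replicate fold changes, kanamycin versus none.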

## GGACAGCAAUAUUACGGGGA
30 °C
  self-splicing fitness (ln): -2.72 ± 0.16
37 °C
  self-splicing fitness (ln): -3.05 ± 0.26

## AUGAAGCAAUAUUACGUAAU
30 °C
  self-splicing fitness (ln): -1.57 ± 0.075
37 °C
  self-splicing fitness (ln): -0.42 ± 0.094

## UGUCAGCAAUAUUACGCUCG
30 °C
  self-splicing fitness (ln): -0.552 ± 0.16
37 °C
  self-splicing fitness (ln): 0.987 ± 0.32

## GGUCAGCAAUAUUACGACCG
30 °C
  self-splicing fitness (ln): -1.89 ± 0.17
37 °C
  self-splicing fitness (ln): -1.26 ± 0.19

## CCCUAGCAAUAUUACGUCUG
30 °C
  self-splicing fitness (ln): -2.99 ± 0.18
37 °C
  self-splicing fitness (ln): -3.17 ± 0.22

## AGGGAGCAAUAUUACGGCAA
30 °C
  self-splicing fitness (ln): -3.52 ± 0.48
37 °C
  self-splicing fitness (ln): -1.8 ± 0.27

## GGUUAGCAAUAUUACGUGUG
30 °C
  self-splicing fitness (ln): -2.43 ± 0.12
37 °C
  self-splicing fitness (ln): -1.56 ± 0.11

## AUACAGCAAUAUUACGCCCG
30 °C
  self-splicing fitness (ln): -0.847 ± 0.17
37 °C
  self-splicing fitness (ln): -0.634 ± 0.25

## UAAAAGCAAUAUUACGUAUC
30 °C
  self-splicing fitness (ln): -3.81 ± 0.35
37 °C
  self-splicing fitness (ln): -2.07 ± 0.23

## UCCUAGCAAUAUUACGUGAG
30 °C
  self-splicing fitness (ln): -2.64 ± 0.14
37 °C
  self-splicing fitness (ln): -1.94 ± 0.17

## CCAUAGCAAUAUUACGUCAU
30 °C
  self-splicing fitness (ln): -4.08 ± 0.31
37 °C
  self-splicing fitness (ln): -2.69 ± 0.17

## UUUAAGCAAUAUUACGAUCA
30 °C
  self-splicing fitness (ln): -0.491 ± 0.1
37 °C
  self-splicing fitness (ln): 0.00531 ± 0.11

## AGAUAGCAAUAUUACGUAUG
30 °C
  self-splicing fitness (ln): -2.57 ± 0.15
37 °C
  self-splicing fitness (ln): -2.3 ± 0.17

## UCAUAGCAAUAUUACGGAGC
30 °C
  self-splicing fitness (ln): -2.3 ± 0.29
37 °C
  self-splicing fitness (ln): -3.14 ± 0.4

## GACUAGCAAUAUUACGUCCG
37 °C
  self-splicing fitness (ln): -1.5 ± 0.31

## AUCCAGCAAUAUUACGUCUC
30 °C
  self-splicing fitness (ln): -1.84 ± 0.12
37 °C
  self-splicing fitness (ln): -0.869 ± 0.11

## UAACAGCAAUAUUACGCGGU
30 °C
  self-splicing fitness (ln): -3.25 ± 0.17
37 °C
  self-splicing fitness (ln): -3.29 ± 0.15

## GGUCAGCAAUAUUACGCUUG
30 °C
  self-splicing fitness (ln): -0.955 ± 0.07
37 °C
  self-splicing fitness (ln): -0.556 ± 0.096

## CGGCAGCAAUAUUACGGCCA
30 °C
  self-splicing fitness (ln): -0.0175 ± 0.12
37 °C
  self-splicing fitness (ln): 0.462 ± 0.16

## AUCGAGCAAUAUUACGAUUA
30 °C
  self-splicing fitness (ln): -2.47 ± 0.23
37 °C
  self-splicing fitness (ln): 0.0165 ± 0.12

## AUUAAGCAAUAUUACGAACG
30 °C
  self-splicing fitness (ln): -1.59 ± 0.18
37 °C
  self-splicing fitness (ln): -0.243 ± 0.15

## CAGGAGCAAUAUUACGAGCC
30 °C
  self-splicing fitness (ln): -2.71 ± 0.29
37 °C
  self-splicing fitness (ln): -2.44 ± 0.49

## CUAAAGCAAUAUUACGAGCU
30 °C
  self-splicing fitness (ln): -4.12 ± 0.26
37 °C
  self-splicing fitness (ln): -2.82 ± 0.38

## GUCUAGCAAUAUUACGCCAA
37 °C
  self-splicing fitness (ln): -0.981 ± 0.29

## GGCCAGCAAUAUUACGUUAG
30 °C
  self-splicing fitness (ln): -3.38 ± 0.26
37 °C
  self-splicing fitness (ln): -2.82 ± 0.34

## CGGCAGCAAUAUUACGAUUG
30 °C
  self-splicing fitness (ln): -0.72 ± 0.055
37 °C
  self-splicing fitness (ln): 0.0589 ± 0.08

## GCGCAGCAAUAUUACGAAUC
30 °C
  self-splicing fitness (ln): 0.348 ± 0.15
37 °C
  self-splicing fitness (ln): -0.0791 ± 0.13

## CUCAAGCAAUAUUACGAGUC
30 °C
  self-splicing fitness (ln): -3.49 ± 0.21
37 °C
  self-splicing fitness (ln): -3.23 ± 0.47

## AGGCAGCAAUAUUACGAAAU
30 °C
  self-splicing fitness (ln): -1.8 ± 0.13
37 °C
  self-splicing fitness (ln): -1.34 ± 0.15

## CAGGAGCAAUAUUACGACCG
30 °C
  self-splicing fitness (ln): 0.66 ± 0.2
37 °C
  self-splicing fitness (ln): 0.00703 ± 0.17

## CAUAAGCAAUAUUACGCGUG
30 °C
  self-splicing fitness (ln): -3.79 ± 0.26
37 °C
  self-splicing fitness (ln): -2.88 ± 0.2

## UAAAAGCAAUAUUACGGUCG
30 °C
  self-splicing fitness (ln): -0.35 ± 0.087
37 °C
  self-splicing fitness (ln): -0.0674 ± 0.1

## UCGGAGCAAUAUUACGUGGG
30 °C
  self-splicing fitness (ln): -3.49 ± 0.32
37 °C
  self-splicing fitness (ln): -3.22 ± 0.28

## GAUCAGCAAUAUUACGCAUG
30 °C
  self-splicing fitness (ln): -0.141 ± 0.095
37 °C
  self-splicing fitness (ln): 0.865 ± 0.14

## GGAUAGCAAUAUUACGUAAG
30 °C
  self-splicing fitness (ln): -1.87 ± 0.17
37 °C
  self-splicing fitness (ln): -0.386 ± 0.2

## UCCAAGCAAUAUUACGCAAA
30 °C
  self-splicing fitness (ln): -2.18 ± 0.24
37 °C
  self-splicing fitness (ln): -0.843 ± 0.17

## UGGCAGCAAUAUUACGGCAC
30 °C
  self-splicing fitness (ln): -2.27 ± 0.25
37 °C
  self-splicing fitness (ln): -1.17 ± 0.16

## GUCCAGCAAUAUUACGGCGA
30 °C
  self-splicing fitness (ln): -1.32 ± 0.12
37 °C
  self-splicing fitness (ln): -0.997 ± 0.14

## UCUAAGCAAUAUUACGACUU
30 °C
  self-splicing fitness (ln): -3.9 ± 0.28
37 °C
  self-splicing fitness (ln): -3.44 ± 0.37

## GCCCAGCAAUAUUACGGGCG
30 °C
  self-splicing fitness (ln): -2.53 ± 0.091
37 °C
  self-splicing fitness (ln): -1.7 ± 0.099

## CAUCAGCAAUAUUACGCUCA
30 °C
  self-splicing fitness (ln): -1.55 ± 0.18
37 °C
  self-splicing fitness (ln): -0.924 ± 0.16

## UGACAGCAAUAUUACGGCAG
30 °C
  self-splicing fitness (ln): -0.0451 ± 0.065
37 °C
  self-splicing fitness (ln): 0.0375 ± 0.079

## CCUCAGCAAUAUUACGAAAG
30 °C
  self-splicing fitness (ln): -1.51 ± 0.069
37 °C
  self-splicing fitness (ln): -0.45 ± 0.087

## CUAUAGCAAUAUUACGUGUG
30 °C
  self-splicing fitness (ln): -1.04 ± 0.079
37 °C
  self-splicing fitness (ln): -0.474 ± 0.096

## CGUAAGCAAUAUUACGCUGU
30 °C
  self-splicing fitness (ln): -2.93 ± 0.16
37 °C
  self-splicing fitness (ln): -2.17 ± 0.21

## CAAUAGCAAUAUUACGACUC
30 °C
  self-splicing fitness (ln): -3.34 ± 0.24
37 °C
  self-splicing fitness (ln): -0.701 ± 0.12

## CCGAAGCAAUAUUACGCCAC
37 °C
  self-splicing fitness (ln): -1.9 ± 0.34

## CCUAAGCAAUAUUACGCGCA
30 °C
  self-splicing fitness (ln): -3.25 ± 0.24
37 °C
  self-splicing fitness (ln): -2.2 ± 0.19

— the supplement of paper PMC7877785
